According to PMC11865173, “Improving the hydrophilic microenvironment surrounding the catalytic site of fructosyltransferase enhances its catalytic ability” (Biotechnology Letters, 2025):

B1: SucC (Aspergillus niger) (protein)
chain: MQTRASVVIDYNVAPPNLSTLPNGSLFETWRPRAHVLPPNGQIGDPCLHYTDPSTGLFHVGFLHDGSGISSATTDDLATYKDLNQGNQVIVPGGINDPVAVFDGSVIPSGINGLPTLLYTSVSFLPIHWSIPYTRGSETQSLAVSSDGGSNFTKLDQGPVIPGPPFAYNVTAFRDPYVFQNPTLDSLLHSKNNTWYTVISGGLHGKGPAQFLYRQYDPDFQYWEFLGQWWHEPTNSTWGNGTWAGRWAFNFETGNVFSLDEYGYNPHGQIFSTIGTEGSDQPVVPQLTSIHDMLWVSGNVSRNGSVSFTPNMAGFLDWGFSSYAAAGKVLPSTSLPSTKSGAPDRFISYVWLSGDLFEQAEGFPTNQQNWTGTLLLPRELRVLYIPNVVDNALARESGASWQVVSSDSSAGTVELQTLGISIARETKAALLSGTSFTESDRTLNSSGVVPFKRSPSEKFFVLSAQLSFPASARGSGLKSGFQILSSELESTTVYYQFSNESIIVDRSNTSAAARTTDGIDSSAEAGKLRLFDVLNGGEQAIETLDLTLVVDNSVLEIYANGRFALSTWVRSWYANSTNISFFQNGVGGVAFSNVTVSEGLYDAWPDRQS
notes: codon-optimised synthetic gene downstream of alpha-factor in pPIC9K, secreted from Pichia pastoris GS115; purified by size exclusion chromatography; model covers residues 25-628; no tag mentioned

Key:
[1] = test system: T1, OC[C@H]1O[C@@](CO)(O[C@H]2O[C@H](CO)[C@@H](O)[C@H](O)[C@H]2O)[C@@H](O)[C@@H]1O; assay: glucose release measured by biosensor, Michaelis-Menten nonlinear fit; type: biochemical, Aspergillus niger; details: 50 °C, pH 5.5, 5 min, transfructosylation
T1 construct: codon-optimised synthetic gene downstream of alpha-factor in pPIC9K, secreted from Pichia pastoris GS115; purified by size exclusion chromatography; model covers residues 25-628; no tag mentioned
Text: (§1) glucose release measured by biosensor, Michaelis-Menten nonlinear fit on SucC

[2] = substrate: OC[C@H]1O[C@@](CO)(O[C@H]2O[C@H](CO)[C@@H](O)[C@H](O)[C@H]2O)[C@@H](O)[C@@H]1O; assay: as above; type: biochemical, Aspergillus niger; details: 50 °C, pH 5.5, 5 min, transfructosylation
Text: as §1

Molecule | Km [1] [mM] | kcat [1] [s⁻¹] | kcat/Km [1] [M⁻¹ s⁻¹] | Km [2] [mM] | kcat [2] [s⁻¹] | kcat/Km [2] [M⁻¹ s⁻¹]
SucC (Aspergillus niger; C66S) | 71.14 | 2.27 | 32 | – | – | –
B1 | – | – | – | 82.20 | 1.87 | 22.8
